Laboratory results as given in patent publication US20080219970A1 (published 2008).

What was measured:
factor IX = molecular target: T1, factor IX (UniProt P00740 47-461); assay: SPR (BIAcore 3000), Ir-CPI immobilized on CM5 chip, factor injected as analyte
T1 construct: also called fIX
Experimental: (§1) The interaction between Ir-CPI and coagulation or fibrinolytic factors was monitored using a BIAcore 3000 instrument (BIAcore AB, Sweden). Ir-CPI (15 μM) was immobilized on the surface of a CM5 sensor chip in 10 mM acetate buffer, pH 5.0, by the amine coupling procedure according to the manufacturer's instructions. 1500 resonance units (RU) of immobilized Ir-CPI were used for the assay. To subtract the non-specific component from the apparent binding response, a blank flow cell was prepared using the same immobilizing procedure without Ir-CPI. Binding analyses were carried out using HBS buffer (HEPES10 mM, NaCl 150 mM, EDTA 3 mM; pH 7.4 with 0.005% surfactant P20) as running buffer at 25° C. 100 μl of each analyte (100 nM) was injected on the sensor chip at a flow rate of 70 μl/min. Association was monitored during an 84 s injection of analyte. Dissociation was monitored for 3 min after return to the running buffer.
(§2) The ability of Ir-CPI to bind a (co)factor of coagulation or fibrinolysis was evaluated by surface plasmon resonance. […] Moreover, the kinetics of interaction between Ir-CPI and the four target factors (XIIa, XIa, plasmin and kallikrein) were measured after a new immobilization of Ir-CPI. In experiments to determine the binding kinetics, the quantity of immobilized Ir-CPI was deliberately kept at a low level (approximately 200 RU) in order to avoid problems where the reaction rate is limited by mass-transport. […] Interaction kinetics were determined for each analyte, at 6 different concentrations (from 5 nM to 300 nM). The kinetic data obtained were individually processed with BIA evaluation software in order to determine the kinetics constants.

factor IXa = molecular target: T2, factor IXa (UniProt P00740 47-191; P00740 227-461); assay: as above
T2 construct: read as fIXa; also called FIXa
Experimental: as §1, §2

factor X = molecular target: T3, factor X (UniProt P00742 41-488); assay: as above
T3 construct: also called fX
Experimental: as §1, §2

thrombin = thrombin (UniProt P00734 328-622); assay: as above
Experimental: as §1, §2

factor VIIa = molecular target: T4, factor VIIa (UniProt P08709 61-466); assay: as above
T4 construct: also called fVIIa; FVIIa
T4 sequence (looked up): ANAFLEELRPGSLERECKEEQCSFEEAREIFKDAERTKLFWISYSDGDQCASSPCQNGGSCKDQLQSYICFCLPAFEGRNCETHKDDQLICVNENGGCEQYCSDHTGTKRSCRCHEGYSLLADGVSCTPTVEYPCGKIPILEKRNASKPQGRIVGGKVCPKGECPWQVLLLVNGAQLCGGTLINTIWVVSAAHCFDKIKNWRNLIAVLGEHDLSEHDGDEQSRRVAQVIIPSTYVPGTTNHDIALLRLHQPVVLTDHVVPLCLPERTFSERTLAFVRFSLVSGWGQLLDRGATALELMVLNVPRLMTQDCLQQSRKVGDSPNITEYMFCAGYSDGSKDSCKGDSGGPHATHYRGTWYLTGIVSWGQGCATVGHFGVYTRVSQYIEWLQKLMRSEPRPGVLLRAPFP
Experimental: as §1, §2

t-PA = t-PA (UniProt P00750 36-562); assay: as above
Experimental: as §1, §2

plasminogen = plasminogen (UniProt P00747 20-810, limits assumed); assay: as above
Experimental: as §1, §2

[1] = molecular target: T5, high molecular weight kininogen (UniProt P01042 19-644); assay: as above
T5 construct: also called HMWK
T5 sequence (looked up): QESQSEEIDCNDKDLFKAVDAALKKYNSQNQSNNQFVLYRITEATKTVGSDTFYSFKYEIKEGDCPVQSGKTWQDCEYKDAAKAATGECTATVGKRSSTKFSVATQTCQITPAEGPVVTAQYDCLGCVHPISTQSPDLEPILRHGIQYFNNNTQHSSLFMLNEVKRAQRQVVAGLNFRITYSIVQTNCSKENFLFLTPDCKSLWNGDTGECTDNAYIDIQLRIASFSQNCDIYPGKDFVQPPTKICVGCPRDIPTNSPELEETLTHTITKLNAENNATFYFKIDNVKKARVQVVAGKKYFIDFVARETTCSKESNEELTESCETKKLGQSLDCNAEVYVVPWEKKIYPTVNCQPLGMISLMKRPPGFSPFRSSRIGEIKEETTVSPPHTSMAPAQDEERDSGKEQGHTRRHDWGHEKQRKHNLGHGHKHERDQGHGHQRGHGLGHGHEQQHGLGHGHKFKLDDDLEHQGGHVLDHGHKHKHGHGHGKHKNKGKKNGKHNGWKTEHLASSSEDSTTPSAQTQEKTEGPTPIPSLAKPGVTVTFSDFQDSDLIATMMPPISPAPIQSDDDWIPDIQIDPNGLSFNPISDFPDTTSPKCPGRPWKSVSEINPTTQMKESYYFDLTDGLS
Experimental: as §1, §2

kallikrein = molecular target: T6, kallikrein (UniProt P03952 20-638); assay: SPR kinetics (BIAcore 3000), Ir-CPI immobilized at about 200 RU, analyte at 6 concentrations from 5 nM to 300 nM
T6 construct: also called plasma kallikrein
Experimental: Interaction kinetics were determined, for each analyte, with 6 different concentrations (from 5 nM to 300 nM). Binding data were analyzed using BIA evaluation software to determine the kinetic constants.
as §2, with “constants. […] FIG. 9 represents sensorgrams for interactions between coagulation factors and immobilized Ir-CPI measured by surface plasmon resonance. Ir-CPI was immobilized onto the surface of a sensor chip CM5 at level of 1500 resonance units (RUs). Contact factors (100 nM final concentration) were injected at a flow rate of 70 μl/min in HBS buffer, and association was monitored. After return to buffer flow, dissociation was monitored during 84 s. […]” for “constants.”

T6 sequence (P03952 20-638 limits assumed): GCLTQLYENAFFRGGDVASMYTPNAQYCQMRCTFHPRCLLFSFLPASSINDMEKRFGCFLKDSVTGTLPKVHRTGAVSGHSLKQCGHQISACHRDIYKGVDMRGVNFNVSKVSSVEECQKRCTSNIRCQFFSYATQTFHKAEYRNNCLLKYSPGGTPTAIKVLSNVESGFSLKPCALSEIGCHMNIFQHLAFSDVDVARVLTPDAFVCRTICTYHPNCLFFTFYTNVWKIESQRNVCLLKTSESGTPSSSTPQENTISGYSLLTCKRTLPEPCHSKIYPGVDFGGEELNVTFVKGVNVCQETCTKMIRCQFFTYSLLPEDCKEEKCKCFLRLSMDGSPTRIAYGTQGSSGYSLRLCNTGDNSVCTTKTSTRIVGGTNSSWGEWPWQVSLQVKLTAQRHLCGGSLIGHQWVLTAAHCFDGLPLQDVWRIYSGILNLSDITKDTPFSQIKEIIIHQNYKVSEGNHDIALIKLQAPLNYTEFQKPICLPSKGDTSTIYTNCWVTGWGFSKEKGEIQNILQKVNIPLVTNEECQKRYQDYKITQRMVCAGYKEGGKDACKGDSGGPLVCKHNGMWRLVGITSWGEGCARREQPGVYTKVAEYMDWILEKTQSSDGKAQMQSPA
Sequence of plasminogen (P00747 20-810 limits assumed): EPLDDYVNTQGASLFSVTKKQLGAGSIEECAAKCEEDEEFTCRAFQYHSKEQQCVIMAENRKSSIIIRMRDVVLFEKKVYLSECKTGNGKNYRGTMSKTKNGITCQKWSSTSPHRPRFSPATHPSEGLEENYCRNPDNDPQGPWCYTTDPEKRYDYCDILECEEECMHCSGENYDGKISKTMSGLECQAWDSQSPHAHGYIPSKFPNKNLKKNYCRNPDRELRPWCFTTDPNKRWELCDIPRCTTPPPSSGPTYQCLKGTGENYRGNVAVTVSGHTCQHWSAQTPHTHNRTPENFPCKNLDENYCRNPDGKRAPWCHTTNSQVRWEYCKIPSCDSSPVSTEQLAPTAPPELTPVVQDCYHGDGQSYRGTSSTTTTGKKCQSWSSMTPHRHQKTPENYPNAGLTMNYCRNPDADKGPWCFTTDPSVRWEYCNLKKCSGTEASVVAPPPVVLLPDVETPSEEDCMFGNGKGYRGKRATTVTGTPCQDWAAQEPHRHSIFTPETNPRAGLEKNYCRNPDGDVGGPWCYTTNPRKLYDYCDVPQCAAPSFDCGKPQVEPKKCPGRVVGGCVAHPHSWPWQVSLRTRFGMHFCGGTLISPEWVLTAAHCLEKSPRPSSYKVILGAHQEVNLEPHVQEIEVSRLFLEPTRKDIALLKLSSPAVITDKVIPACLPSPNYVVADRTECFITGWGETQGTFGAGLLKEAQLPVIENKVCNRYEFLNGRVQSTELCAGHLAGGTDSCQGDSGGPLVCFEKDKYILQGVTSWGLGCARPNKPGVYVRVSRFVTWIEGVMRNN
Sequence of t-PA (P00750 36-562 limits assumed): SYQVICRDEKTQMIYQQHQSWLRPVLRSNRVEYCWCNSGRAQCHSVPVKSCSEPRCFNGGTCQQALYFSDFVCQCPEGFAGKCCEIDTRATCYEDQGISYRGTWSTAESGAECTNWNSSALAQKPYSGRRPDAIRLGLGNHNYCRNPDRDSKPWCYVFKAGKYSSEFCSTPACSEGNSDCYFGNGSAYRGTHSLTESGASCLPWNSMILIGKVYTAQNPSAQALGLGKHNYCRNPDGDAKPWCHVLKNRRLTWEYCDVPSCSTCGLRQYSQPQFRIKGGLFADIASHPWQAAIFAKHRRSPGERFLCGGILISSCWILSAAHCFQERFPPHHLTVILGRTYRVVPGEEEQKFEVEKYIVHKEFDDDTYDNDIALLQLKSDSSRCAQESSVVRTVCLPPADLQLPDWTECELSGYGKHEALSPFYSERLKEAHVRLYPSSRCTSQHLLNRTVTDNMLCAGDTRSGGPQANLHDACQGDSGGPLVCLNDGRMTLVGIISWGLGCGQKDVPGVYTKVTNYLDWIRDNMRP

B1: Ir-CPI (Ixodes ricinus Contact Phase Inhibitor), recombinant, without its peptide signal (other)
chain: ANHKGRGRPAKCKLPPDDGPCRARIPSYYFDRKTKTCKEFMYGGCEGNENNFENITTCQEECRAKKV
notes: Immobilized on a CM5 chip by amine coupling for SPR; also called recombinant Ir-CPI
Factor IX
  binding result: no binding (tested: 100 nM)
Factor IXa
  binding result: no binding (tested: 100 nM)
Factor X
  binding result: no binding (tested: 100 nM)
thrombin
  binding result: no binding (tested: 100 nM)
Factor VIIa
  binding result: no binding (tested: 100 nM)
t-PA
  binding result: no binding (tested: 100 nM)
plasminogen
  binding result: no binding (tested: 100 nM)
[1]
  binding result: no binding (tested: 100 nM)
kallikrein
  Kd: 200 nM
